Experimental findings from article PMC12024540, “Peptide-Based Regulation of TNF-α-Mediated Cytotoxicity” (Biomolecules, 2025) are described below.

The assay concerns caspase-3 and caspase-7 activities in L929 cells. The experiment in a line: Caspase-Glo 3/7 apoptosis assay on TNF-α-stimulated L929 cells. The format is cell-based, mouse. Particulars: at 10 nM and 100 nM with TNF-α 1 ng/mL. How it is done: Apoptosis was detected by measuring caspase-3 and caspase-7 activities with the Promega Caspase-Glo 3/7 Assay Kit. A total of 1.5 × 10^4 cells were seeded onto opaque 96-well tissue culture plates. After 24 ± 2 h of incubation, cells were stimulated with the same concentration of actinomycin D and TNF-α with different peptide concentrations. After 4 h of incubation in 5% CO2 at 37 °C, freshly prepared caspase 3/7 reagent was added to each well, followed by incubation for 1 h at room temperature. Luminescence was measured using a plate reader (CLARIOstar Plus, BMG Labtech, Ortenberg, Germany). Fold change was calculated from the ratio of luminescence of cell control to that of TNF-α-treated cells.

B1: TNFR1: Human TNFR1 (soluble) recombinant protein applied with TNF-α in the caspase 3/7 assay (protein)
chain: SVCPQGKYIHPQNNSICCTKCHKGTYLYNDCPGPGQDTDCRECESGSFTASENHLRHCLSCSKCRKEMGQVEISSCTVDRDTVCGCRKNQYRHYWSENLFQCFNCSLCLNGTVHLSCQEKQNTVCTCHAGFFLRENECVS
modifications: fluorescent label from the Monolith Protein Labeling Kit RED-NHS 2nd Generation (labelled target in MST)
notes: Human TNFR1 (soluble) recombinant protein applied with TNF-α in the caspase 3/7 assay
Turning to B1, the “effect on caspase 3/7 activity” value is listed as “significantly reduced caspase 3/7 activity”.
